# Experimental data from US20130288979A1 (CENTRE NATIONAL DE LA RECHERCHE SCIENTIFIQUE CNRS, published 2013).
# Non-standard residues stand in square brackets, D forms with d. No end group written: not given here. Ahx = NCCCCCC(=O)O
# T1: His-tagged intracellular region of Fas receptor (UniProt P25445 191-335, limits assumed)
# T1 construct: domain: intracellular region; Bought reagent (Sigma); also called intra-cellular region of the Fas receptor (Sigma); not shown: His tag
# T1 sequence (looked up): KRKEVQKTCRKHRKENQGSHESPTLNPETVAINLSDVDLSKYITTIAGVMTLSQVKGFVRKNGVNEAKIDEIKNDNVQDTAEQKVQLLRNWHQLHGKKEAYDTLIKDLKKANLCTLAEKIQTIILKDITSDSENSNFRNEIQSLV
# B1: mDAXXp (peptide)
# peptide: KRFRKEKKQLGSGLLG-NH2
# modifications: not fully specified; printed as KRFRKEKKQLGSGLLG-NH2
# notes: also called mouse homolog of human DAXXp; murine DAXXp
# B2: Tat-DAXXp (peptide)
# peptide: GRKKRRQRRRPPQKKSRKEKKQTGSGPLG-NH2
# notes: Conjugate of the Tat cell penetrating peptide (N-terminal) and DAXXp
# B3: Pip2b-DAXXp (peptide)
# peptide: R[Ahx]RR[Ahx]RR[Ahx]RIHILFQN[dR]RMKWHKKKSRKEKKQTGSGPLG-NH2
# modifications: not fully specified
# notes: 39 residues; holds non-natural residues in the Pip2b part
# B4: ncDAXXp (peptide)
# peptide: AKLYVYINELCTVLK
# notes: Negative-control DAXX 15mer; the text uses it as Tat-ncDAXXp in the cell assays; also called circled spot at the start of row 41 of the DAXX pepscan
# How the values were obtained:
# [1] = biological target: T1, His-tagged intracellular region of Fas …; test: SPR (Biacore), mean of three experiments ± SD
# Protocol: Additionally, the potential interaction of the fragments with the intracellular region of the Fas receptor was cross-validated by measuring the binding affinities (Kd) using the surface plasmon resonance (SPR) technique (Biacore Life Science, Sweden).
# All experiments are performed on a Biacore instrument. For each condition, the mean value of three independent experiments and the corresponding standard deviation are plotted.
# [2] = biological target: T1, His-tagged intracellular region of Fas …; test: SPOT pepscan of DAXX (15mers, shift 3) on membrane, probed with His-tagged Fas intracellular region, anti-His(mouse)/anti-mouse-HRP, enzyme-linked blot
binder,measurement,setting,value
KKSRKEKKQTGSGPLG-NH2 (also called DAXX peptide) [DAXXp],Kd,[1],333 µM
B1,Kd,[1],252 µM
B2,Kd,[1],13 µM
B3,Kd,[1],0.7 µM
B4,binding result,[2],no binding
